The values that follow come from US9956260.

What all share (experiment): cell-based or functional assay
One test concerns the target T1, caspase-3 (human) (UniProt P42574).
T1 sequence: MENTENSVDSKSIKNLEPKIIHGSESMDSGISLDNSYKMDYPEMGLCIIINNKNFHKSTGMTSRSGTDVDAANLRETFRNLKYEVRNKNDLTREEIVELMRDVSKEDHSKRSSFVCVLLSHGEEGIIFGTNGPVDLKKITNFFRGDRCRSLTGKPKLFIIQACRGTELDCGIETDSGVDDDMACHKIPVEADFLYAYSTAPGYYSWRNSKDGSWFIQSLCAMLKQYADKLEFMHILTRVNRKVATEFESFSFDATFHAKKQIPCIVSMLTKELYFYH

Test [1] has as its target HIV-1 gp41 of WEAU 16-8 (primary virus) (HIV-1 (primary isolate WEAU 16-8)).
Test [2] deals with HIV-1 gp41 of NL4-3 (WT lab-adapted virus) (HIV-1 (NL4-3)).

A value given as a limit tells only on which side of the number the result lay.

In the test with caspase-3 (human), Z-DEVD-FMK (peptide) returned a decrease in CD4 T-cell death in HIV-infected HLACs of 50% and a percentage of viable CD4 T cells in HIV-1-infected HLACs after 3 days (flow cytometry; inhibitors 20 µM each) of 50%.

enfuvirtide (T20) (peptide) returned a viral infection of HLACs (p24gag FLAQ assay, day 9) in test [1] of 0.1 µg/mL. Further, in test [2], the viral infection of HLACs (p24gag FLAQ assay, day 9) was over 2 µg/mL and the viral infection of HLACs (p24gag FLAQ assay, day 9) (µg/ml (printed 'gi/ml')) came out at 10.
